The record followed here is US20080014191A1.

Test [1] concerns the target wild-type cystic fibrosis transmembrane conductance regulator (CFTR) (Homo sapiens (Human)) (UniProt P13569). In words: CFTR co-IP, MudPIT MS; cell line not stated.
Test [2] addresses ΔF508 CFTR (Homo sapiens (Human)) (UniProt P13569). In words: CFTR co-IP, MudPIT MS; BHK ΔF508.
In test [3] the target is wild-type cystic fibrosis transmembrane conductance regulator (CFTR) (Homo sapiens (Human)) (UniProt P13569). The experiment in a line: CFTR co-IP, MudPIT MS; BHK wt.
wild-type cystic fibrosis transmembrane conductance regulator (CFTR) (Homo sapiens (Human)), sequence (P13569 whole entry): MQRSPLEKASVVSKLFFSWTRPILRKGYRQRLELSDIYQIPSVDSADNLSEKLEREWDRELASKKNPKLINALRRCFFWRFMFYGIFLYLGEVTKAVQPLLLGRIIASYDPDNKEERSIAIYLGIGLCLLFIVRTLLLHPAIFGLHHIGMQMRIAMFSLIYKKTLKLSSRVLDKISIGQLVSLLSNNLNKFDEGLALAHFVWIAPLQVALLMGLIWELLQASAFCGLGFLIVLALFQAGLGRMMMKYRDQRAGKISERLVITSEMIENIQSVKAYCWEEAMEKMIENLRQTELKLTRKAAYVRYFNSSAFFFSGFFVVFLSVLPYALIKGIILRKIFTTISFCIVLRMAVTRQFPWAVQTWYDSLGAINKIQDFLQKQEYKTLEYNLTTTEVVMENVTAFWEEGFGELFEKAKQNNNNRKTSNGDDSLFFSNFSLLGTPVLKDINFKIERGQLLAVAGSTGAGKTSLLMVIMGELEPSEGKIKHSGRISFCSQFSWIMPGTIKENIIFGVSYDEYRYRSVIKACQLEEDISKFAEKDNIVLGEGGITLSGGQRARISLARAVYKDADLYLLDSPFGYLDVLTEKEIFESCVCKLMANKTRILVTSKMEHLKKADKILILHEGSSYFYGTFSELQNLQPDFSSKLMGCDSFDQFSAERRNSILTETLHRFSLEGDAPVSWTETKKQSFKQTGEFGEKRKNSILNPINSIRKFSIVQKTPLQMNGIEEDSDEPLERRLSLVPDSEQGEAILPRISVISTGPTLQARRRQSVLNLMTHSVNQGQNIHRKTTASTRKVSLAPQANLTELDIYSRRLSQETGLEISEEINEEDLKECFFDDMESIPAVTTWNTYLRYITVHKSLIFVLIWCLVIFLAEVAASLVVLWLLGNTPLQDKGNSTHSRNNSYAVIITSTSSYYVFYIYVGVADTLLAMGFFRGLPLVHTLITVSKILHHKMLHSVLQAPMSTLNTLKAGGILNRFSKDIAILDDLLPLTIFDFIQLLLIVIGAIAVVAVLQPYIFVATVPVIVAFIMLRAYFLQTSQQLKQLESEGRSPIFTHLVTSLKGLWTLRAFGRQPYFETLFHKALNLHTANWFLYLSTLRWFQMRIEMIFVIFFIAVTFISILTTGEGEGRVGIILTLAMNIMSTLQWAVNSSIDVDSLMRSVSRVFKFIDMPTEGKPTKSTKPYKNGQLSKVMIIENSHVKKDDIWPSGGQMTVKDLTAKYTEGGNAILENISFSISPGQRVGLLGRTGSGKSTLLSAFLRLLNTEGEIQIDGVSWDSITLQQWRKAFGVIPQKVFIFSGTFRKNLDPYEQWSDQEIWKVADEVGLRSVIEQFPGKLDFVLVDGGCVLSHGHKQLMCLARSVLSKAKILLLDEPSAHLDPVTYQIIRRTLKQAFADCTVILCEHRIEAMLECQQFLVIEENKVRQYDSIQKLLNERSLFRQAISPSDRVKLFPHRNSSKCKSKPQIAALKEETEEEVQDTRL
For test [4], the target named is ΔF508 CFTR (Homo sapiens (Human)) (UniProt P13569). In words: CFTR co-IP, MudPIT MS; ΔF508.
ΔF508 CFTR (Homo sapiens (Human)), sequence (P13569 other isoform, or with tags, fused parts or gaps mutant limits assumed): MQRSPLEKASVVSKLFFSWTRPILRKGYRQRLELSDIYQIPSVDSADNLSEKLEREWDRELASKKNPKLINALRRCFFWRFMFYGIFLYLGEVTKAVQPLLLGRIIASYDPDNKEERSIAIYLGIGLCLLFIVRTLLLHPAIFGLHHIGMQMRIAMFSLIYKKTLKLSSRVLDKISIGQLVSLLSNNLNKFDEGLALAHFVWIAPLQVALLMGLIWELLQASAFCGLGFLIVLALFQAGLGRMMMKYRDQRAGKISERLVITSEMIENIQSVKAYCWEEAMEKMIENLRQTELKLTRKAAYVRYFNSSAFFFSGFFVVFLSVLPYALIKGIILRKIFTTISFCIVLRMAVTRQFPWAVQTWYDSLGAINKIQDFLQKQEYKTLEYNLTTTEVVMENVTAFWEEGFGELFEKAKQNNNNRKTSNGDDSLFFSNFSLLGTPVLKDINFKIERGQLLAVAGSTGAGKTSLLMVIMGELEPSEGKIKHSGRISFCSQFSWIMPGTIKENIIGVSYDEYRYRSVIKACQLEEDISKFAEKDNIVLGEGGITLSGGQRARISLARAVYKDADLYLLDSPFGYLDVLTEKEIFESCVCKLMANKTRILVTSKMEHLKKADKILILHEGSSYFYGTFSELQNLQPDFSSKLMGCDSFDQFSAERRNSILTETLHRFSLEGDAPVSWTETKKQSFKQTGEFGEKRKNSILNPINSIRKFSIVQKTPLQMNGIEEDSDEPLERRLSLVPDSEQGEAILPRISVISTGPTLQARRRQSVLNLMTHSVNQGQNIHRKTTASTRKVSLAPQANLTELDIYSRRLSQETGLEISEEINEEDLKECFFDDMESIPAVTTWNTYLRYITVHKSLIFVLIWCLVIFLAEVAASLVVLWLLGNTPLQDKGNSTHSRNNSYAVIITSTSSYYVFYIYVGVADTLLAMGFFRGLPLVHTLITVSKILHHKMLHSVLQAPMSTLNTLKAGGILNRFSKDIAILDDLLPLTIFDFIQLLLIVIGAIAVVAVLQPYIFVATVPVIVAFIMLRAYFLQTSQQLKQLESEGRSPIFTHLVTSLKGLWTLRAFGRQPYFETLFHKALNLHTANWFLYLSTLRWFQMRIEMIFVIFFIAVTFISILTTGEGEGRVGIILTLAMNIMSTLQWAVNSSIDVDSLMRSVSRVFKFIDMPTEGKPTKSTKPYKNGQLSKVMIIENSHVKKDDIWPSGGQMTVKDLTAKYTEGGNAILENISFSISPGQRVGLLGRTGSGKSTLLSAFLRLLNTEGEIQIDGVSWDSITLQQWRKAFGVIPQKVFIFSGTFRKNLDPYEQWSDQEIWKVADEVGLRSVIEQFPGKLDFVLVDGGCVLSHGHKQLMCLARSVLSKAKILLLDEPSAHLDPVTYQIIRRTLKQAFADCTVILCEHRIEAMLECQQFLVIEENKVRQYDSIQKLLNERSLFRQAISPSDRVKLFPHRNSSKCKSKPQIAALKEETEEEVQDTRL

In test [1], ARF4 (from UniProt P61750 2-180) had a % sequence coverage of 16%, a total peptide spectra of 4 spectra and a unique peptide spectra of 2 spectra.
In test [2], “Aha1, activator of heat shock 90 kDa protein ATPase homolog 1 (from UniProt O95433 1-338)” yielded a % sequence coverage of 15%, a total spectra of 15 spectra and a unique spectra of 7 spectra. In test [3], the % sequence coverage was 34%, the total spectra was 20 spectra and the unique spectra was determined as 10 spectra.
BAG-2 (from UniProt O95816 2-211): in test [2], the % sequence coverage turned out to be 28%, the total spectra came to 20 spectra and the unique spectra came to 7 spectra. In test [3], this substance came in with a % sequence coverage of 10%, a total spectra of 2 spectra and a unique spectra of 2 spectra.
In test [2], BAG-3 (from UniProt Q9JLV1 2-577) returned a % sequence coverage of 12%, a total spectra of 5 spectra and a unique spectra of 4 spectra.
CLCA1 (from UniProt A8K7I4 22-914): in test [1], the % sequence coverage worked out at 2%, the total peptide spectra worked out at 2 spectra and the unique peptide spectra was determined as 2 spectra.
Consider Calumenin (from UniProt O43852 20-315), for which, in test [3], the % sequence coverage amounted to 7%, the total spectra came to 3 spectra and the unique spectra is 3 spectra.
In the case of Cdc37 (from UniProt Q61081 1-379), in test [2], the % sequence coverage was 8%, the total spectra amounted to 3 spectra and the unique spectra came to 2 spectra.
For “DnaJ-like protein (from UniProt P63036 1-394)”, in that order: 34%, 35 spectra and 11 spectra.
For FKBP38 (from UniProt O35465 1-402) the same measures were 17%, 5 spectra and 4 spectra.
Consider GRP75 (from UniProt P38647 47-679), for which, in test [2], the % sequence coverage is 34%, the total spectra was found to be 40 spectra and the unique spectra is 23 spectra.
In test [2], GRP78 (from UniProt P20029 20-655) came in with a % sequence coverage of 40%, a total spectra of 85 spectra and a unique spectra of 30 spectra. In test [3], this substance registered a % sequence coverage of 33%, a total spectra of 37 spectra and a unique spectra of 17 spectra.
In test [3], Hsc70 (from UniProt P63018 2-646) had a % sequence coverage of 48%, a total spectra of 132 spectra and a unique spectra of 39 spectra.
Turning to “Hsc-Hsp70/Hsp90 organizing protein (HOP) (from UniProt Q60864 1-543)”, in test [2], the % sequence coverage worked out at 11%, the total spectra came out at 4 spectra and the unique spectra turned out to be 4 spectra.
In test [2], “Hsp40-A1 (Hdj2) (from UniProt P31689 1-394)” came in with a % sequence coverage of 31%, a total spectra of 33 spectra and a unique spectra of 10 spectra. For the same substance, in test [3], the % sequence coverage is 40%, the total spectra came out at 25 spectra and the unique spectra amounted to 13 spectra.
As for “Hsp40-A2 (Hdj3) (from UniProt O60884 1-409)”, in test [2], the % sequence coverage was found to be 32%, the total spectra stood at 19 spectra and the unique spectra came to 9 spectra. In test [3], the % sequence coverage worked out at 28%, the total spectra amounted to 16 spectra and the unique spectra is 6 spectra.
Consider Hsp70-1A (from UniProt P0DMV8 2-641), for which, in test [2], the % sequence coverage came to 19%, the total spectra came out at 20 spectra and the unique spectra stood at 12 spectra. In test [3], this substance gave a % sequence coverage of 8%, a total spectra of 6 spectra and a unique spectra of 4 spectra.
Take Hsp70-2 (from UniProt P54652 1-639): in test [2], the % sequence coverage was 16%, the total spectra amounted to 57 spectra and the unique spectra turned out to be 23 spectra. Besides, in test [3], the % sequence coverage is 8%, the total spectra worked out at 17 spectra and the unique spectra is 7 spectra.
In test [2], Hsp70B′ (from UniProt P17066 1-643) registered a % sequence coverage of 10%, a total spectra of 14 spectra and a unique spectra of 8 spectra. In test [3], this substance yielded a % sequence coverage of 3%, a total spectra of 5 spectra and a unique spectra of 3 spectra.
In test [2], “Hsp90, alpha (from UniProt P07900 2-732)” gave a % sequence coverage of 39%, a total spectra of 37 spectra and a unique spectra of 24 spectra. In test [3], this substance displayed a % sequence coverage of 6%, a total spectra of 5 spectra and a unique spectra of 4 spectra.
Regarding Hsp90β (from UniProt P11499 2-724), in test [2], the % sequence coverage was 36%, the total spectra worked out at 49 spectra and the unique spectra was determined as 24 spectra. In test [3], this substance came in with a % sequence coverage of 21%, a total spectra of 18 spectra and a unique spectra of 11 spectra.
In test [2], Hsp105 (from UniProt Q61699 2-858) registered a % sequence coverage of 10%, a total spectra of 6 spectra and a unique spectra of 5 spectra.
Turning to “RalBP1 associated Eps domain containing protein (Reps1) (from UniProt O54916 1-795)”, in test [1], the % sequence coverage came to 6%, the total peptide spectra was 2 spectra and the unique peptide spectra was determined as 2 spectra.
Turning to “Reticulocalbin 2 (from UniProt Q8BP92 26-320)”, in test [2], the % sequence coverage was 9%, the total spectra amounted to 4 spectra and the unique spectra came out at 3 spectra. In test [3], this substance returned a % sequence coverage of 22%, a total spectra of 12 spectra and a unique spectra of 6 spectra.
In test [2], “Reticulocalbin (from UniProt Q05186 24-325)” yielded a % sequence coverage of 27%, a total spectra of 8 spectra and a unique spectra of 5 spectra. Besides, in test [3], the % sequence coverage came out at 50%, the total spectra was determined as 19 spectra and the unique spectra is 14 spectra.
In the case of TCP1 (from UniProt P11983 1-556), in test [2], the % sequence coverage came to 10%, the total spectra is 5 spectra and the unique spectra worked out at 3 spectra. Besides, in test [3], the % sequence coverage worked out at 9%, the total spectra was 5 spectra and the unique spectra was 3 spectra.
Consider “VCP (RefSeq NM_009503) (from UniProt Q01853 2-806)”, for which, in test [1], the % sequence coverage is 7%, the total peptide spectra was 2 spectra and the unique peptide spectra worked out at 2 spectra.
In test [1], VPS 4A (from UniProt Q9UN37 1-437) registered a % sequence coverage of 5%, a total peptide spectra of 2 spectra and a unique peptide spectra of 2 spectra.
Turning to “clathrin, light chain (from UniProt O08585 1-235)”, in test [1], the % sequence coverage is 13%, the total peptide spectra was 11 spectra and the unique peptide spectra is 3 spectra.
Turning to “cyclophilin B (from UniProt P23284 34-216)”, in test [2], the % sequence coverage is 13%, the total spectra amounted to 2 spectra and the unique spectra worked out at 2 spectra.
In test [1], “disabled homolog 2 (Dab2) (from UniProt P98078 2-766)” showed a % sequence coverage of 5%, a total peptide spectra of 3 spectra and a unique peptide spectra of 3 spectra.
In test [1], enthoprotin (from UniProt Q14677 1-625) yielded a % sequence coverage of 9%, a total peptide spectra of 5 spectra and a unique peptide spectra of 4 spectra.
For flotillin 2 (from UniProt Q60634 2-428), in test [1], the % sequence coverage turned out to be 5%, the total peptide spectra was 2 spectra and the unique peptide spectra turned out to be 2 spectra.
As for p23 (from UniProt Q15185 1-160), in test [2], the % sequence coverage is 16%, the total spectra turned out to be 2 spectra and the unique spectra came out at 2 spectra.
On to “proteasome 26S, ATPase 3 (from UniProt O88685 1-442)”, for which, in test [4], the % sequence coverage is 8%, the total peptide spectra worked out at 3 spectra and the unique peptide spectra turned out to be 2 spectra.
With “proteasome 26S, ATPase, 4 (from UniProt P43686 1-418)”, in test [4], the % sequence coverage was 12%, the total peptide spectra worked out at 3 spectra and the unique peptide spectra was found to be 2 spectra.
On to “proteasome 26S, non-ATPase, 11 (from UniProt O00231 2-422)”, for which, in test [4], the % sequence coverage is 5%, the total peptide spectra was 2 spectra and the unique peptide spectra worked out at 2 spectra.
In test [4], “proteasome, alpha type 2 (from UniProt P49722 2-234)” registered a % sequence coverage of 17%, a total peptide spectra of 5 spectra and a unique peptide spectra of 2 spectra.
In test [4], “proteasome, alpha type 5 (from UniProt Q9Z2U1 1-241)” displayed a % sequence coverage of 23%, a total peptide spectra of 3 spectra and a unique peptide spectra of 3 spectra.
In test [1], “sortilin-related receptor L (SORL1) (from UniProt Q92673 82-2214)” displayed a % sequence coverage of 1%, a total peptide spectra of 12 spectra and a unique peptide spectra of 1 spectra.
For “sorting nexin 4 (from UniProt O95219 1-450)” the same measures were 3%, 5 spectra and 3 spectra.
For the substance “sorting nexin 9 (from UniProt Q9Y5X1 1-595)”, in test [1], the % sequence coverage came to 5%, the total peptide spectra was 2 spectra and the unique peptide spectra stood at 2 spectra.
Consider βCOP (from UniProt P53618 2-953), for which, in test [1], the % sequence coverage was 5%, the total peptide spectra is 2 spectra and the unique peptide spectra came out at 2 spectra.
